B1: PTH1R-WT coupled to a C-terminal HaloTag (parathyroid hormone 1 receptor) [not stated] / β-arrestin1-dFLR (finger-loop region Y63 to K77 deleted) C-terminally fused to Nanoluciferase [not stated] (parent)
chain 1: MGDKGTRVFKKASPNGKLTVYLGKRDFVDHIDLVDPVDGVVLVDPEYLKERRVYVTLTCAFRDLFVANVQSFPPAPEDKKPLTRLQERLIKKLGEHAYPFTFEIPPNLPCSVTLQPGPEDTGKACGVDYEVKAFCAENLEEKIHKRNSVRLVIRKVQYAPERPGPQPTAETTRQFLMSDKPLHLEASLDKEIYYHGEPISVNVHVTNNTNKTVKKIKISVRQYADICLFNTAQYKCPVAMEEADDTVAPSSTFCKVYTLTPFLANNREKRGLALDGKLKHEDTNLASSTLLREGANREILGIIVSYKVKVKLVVSRGGLLGDLASSDVAVELPFTLMHPKPKEEPPHREVPENETPVDTNLIELDTNDDDIVFEDFARQRLKGMKDDKEEEEDGTGSPQLNNR
chain 2: DADDVMTKEEQIFLLHRAQAQCEKRLKEVLQRPASIMESDKGWTSASTSGKPRKDKASGKLYPESEEDKEAPTGSRYRGRPCLPEWDHILCWPLGAPGEVVAVPCPDYIYDFNHKGHAYRRCDRNGSWELVPGHNRTWANYSECVKFLTNETREREVFDRLGMIYTVGYSVSLASLTVAVLILAYFRRLHCTRNYIHMHLFLSFMLRAVSIFVKDAVLYSGATLDEAERLTEEELRAIAQAPPPPATAAAGYAGCRVAVTFFLYFLATNYYWILVEGLYLHSLIFMAFFSEKKYLWGFTVFGWGLPAVFVAVWVSVRATLANTGCWDLSSGNKKWIIQVPILASIVLNFILFINIVRVLATKLRETNAGRCDTRQQYRKLLKSTLVLMPLFGVHYIVFMATPYTEVSGTLWQVQMHYEMLFNSFQGFFVAIIYCFCNGEVQAEIKKSWSRWTLALDFKRKARSGSSSYSYGPMVSHTSVTNVGPRVGLGLPLSPRLLPTATTNGHPQLPGHAKPGTPALETLETTPPAMAAPKDDGFLNGSCSGLDEEASGPERPPALLQEEWETVM

Variants of: B1
Assay: NanoBRET recruitment assay in living cells
Conditions: with β-arrestin1-dFLR (finger-loop region Y63 to K77 deleted) C-terminally fused to Nanoluciferase; HEK-WT + EV; point at the highest PTH(1-34) concentration (about 3 µM); partner is β-arrestin1-dFLR; parent: 2.8; read off a plot

Variant | response
chain 2 DADDVMTKEEQIFLLHRAQAQCEKRLKEVLQRPASIMESDKGWTSASTSGKPRKDKASGKLYPESEEDKEAPTGSRYRGRPCLPEWDHILCWPLGAPGEVVAVPCPDYIYDFNHKGHAYRRCDRNGSWELVPGHNRTWANYSECVKFLTNETREREVFDRLGMIYTVGYSVSLASLTVAVLILAYFRRLHCTRNYIHMHLFLSFMLRAVSIFVKDAVLYSGATLDEAERLTEEELRAIAQAPPPPATAAAGYAGCRVAVTFFLYFLATNYYWILVEGLYLHSLIFMAFFSEKKYLWGFTVFGWGLPAVFVAVWVSVRATLANTGCWDLSSGNKKWIIQVPILASIVLNFILFINIVRVLATKLRETNAGRCDTRQQYRKLLKSTLVLMPLFGVHYIVFMATPYTEVSGTLWQVQMHYEMLFNSFQGFFVAIIYCFCNGEVQAEIKKSWSRWTLALDFKRKARSGSSSYSYGPMVAHAAVANVGPRVGLGLPLSPRLLPTATTNGHPQLPGHAKPGTPALETLETTPPAMAAPKDDGFLNGSCSGLDEEASGPERPPALLQEEWETVM [chain 2 S475A T477A S478A T480A] | 1.1 fold change
chain 2 DADDVMTKEEQIFLLHRAQAQCEKRLKEVLQRPASIMESDKGWTSASTSGKPRKDKASGKLYPESEEDKEAPTGSRYRGRPCLPEWDHILCWPLGAPGEVVAVPCPDYIYDFNHKGHAYRRCDRNGSWELVPGHNRTWANYSECVKFLTNETREREVFDRLGMIYTVGYSVSLASLTVAVLILAYFRRLHCTRNYIHMHLFLSFMLRAVSIFVKDAVLYSGATLDEAERLTEEELRAIAQAPPPPATAAAGYAGCRVAVTFFLYFLATNYYWILVEGLYLHSLIFMAFFSEKKYLWGFTVFGWGLPAVFVAVWVSVRATLANTGCWDLSSGNKKWIIQVPILASIVLNFILFINIVRVLATKLRETNAGRCDTRQQYRKLLKSTLVLMPLFGVHYIVFMATPYTEVSGTLWQVQMHYEMLFNSFQGFFVAIIYCFCNGEVQAEIKKSWSRWTLALDFKRKARAGAAAYAYGPMVSHTSVTNVGPRVGLGLPLSPRLLPTATTNGHPQLPGHAKPGTPALETLETTPPAMAAPKDDGFLNGSCSGLDEEASGPERPPALLQEEWETVM [chain 2 S463A S465A S466A S467A S469A] | 2.6 fold change

Same assay, conditions: with β-arrestin1-dFLR (finger-loop region Y63 to K77 deleted) C-terminally fused to Nanoluciferase; ΔQ-GRK + EV; point at the highest PTH(1-34) concentration (about 3 µM); partner is β-arrestin1-dFLR; parent: 1; read off a plot

Variant | response
chain 2 DADDVMTKEEQIFLLHRAQAQCEKRLKEVLQRPASIMESDKGWTSASTSGKPRKDKASGKLYPESEEDKEAPTGSRYRGRPCLPEWDHILCWPLGAPGEVVAVPCPDYIYDFNHKGHAYRRCDRNGSWELVPGHNRTWANYSECVKFLTNETREREVFDRLGMIYTVGYSVSLASLTVAVLILAYFRRLHCTRNYIHMHLFLSFMLRAVSIFVKDAVLYSGATLDEAERLTEEELRAIAQAPPPPATAAAGYAGCRVAVTFFLYFLATNYYWILVEGLYLHSLIFMAFFSEKKYLWGFTVFGWGLPAVFVAVWVSVRATLANTGCWDLSSGNKKWIIQVPILASIVLNFILFINIVRVLATKLRETNAGRCDTRQQYRKLLKSTLVLMPLFGVHYIVFMATPYTEVSGTLWQVQMHYEMLFNSFQGFFVAIIYCFCNGEVQAEIKKSWSRWTLALDFKRKARSGSSSYSYGPMVAHAAVANVGPRVGLGLPLSPRLLPTATTNGHPQLPGHAKPGTPALETLETTPPAMAAPKDDGFLNGSCSGLDEEASGPERPPALLQEEWETVM [chain 2 S475A T477A S478A T480A] | 1 fold change
chain 2 DADDVMTKEEQIFLLHRAQAQCEKRLKEVLQRPASIMESDKGWTSASTSGKPRKDKASGKLYPESEEDKEAPTGSRYRGRPCLPEWDHILCWPLGAPGEVVAVPCPDYIYDFNHKGHAYRRCDRNGSWELVPGHNRTWANYSECVKFLTNETREREVFDRLGMIYTVGYSVSLASLTVAVLILAYFRRLHCTRNYIHMHLFLSFMLRAVSIFVKDAVLYSGATLDEAERLTEEELRAIAQAPPPPATAAAGYAGCRVAVTFFLYFLATNYYWILVEGLYLHSLIFMAFFSEKKYLWGFTVFGWGLPAVFVAVWVSVRATLANTGCWDLSSGNKKWIIQVPILASIVLNFILFINIVRVLATKLRETNAGRCDTRQQYRKLLKSTLVLMPLFGVHYIVFMATPYTEVSGTLWQVQMHYEMLFNSFQGFFVAIIYCFCNGEVQAEIKKSWSRWTLALDFKRKARAGAAAYAYGPMVSHTSVTNVGPRVGLGLPLSPRLLPTATTNGHPQLPGHAKPGTPALETLETTPPAMAAPKDDGFLNGSCSGLDEEASGPERPPALLQEEWETVM [chain 2 S463A S465A S466A S467A S469A] | 1 fold change

Same assay, conditions: with β-arrestin1-dFLR (finger-loop region Y63 to K77 deleted) C-terminally fused to Nanoluciferase; ΔQ-GRK + GRK2; point at the highest PTH(1-34) concentration (about 3 µM); partner is β-arrestin1-dFLR; parent: 2.3; read off a plot

Variant | response
chain 2 DADDVMTKEEQIFLLHRAQAQCEKRLKEVLQRPASIMESDKGWTSASTSGKPRKDKASGKLYPESEEDKEAPTGSRYRGRPCLPEWDHILCWPLGAPGEVVAVPCPDYIYDFNHKGHAYRRCDRNGSWELVPGHNRTWANYSECVKFLTNETREREVFDRLGMIYTVGYSVSLASLTVAVLILAYFRRLHCTRNYIHMHLFLSFMLRAVSIFVKDAVLYSGATLDEAERLTEEELRAIAQAPPPPATAAAGYAGCRVAVTFFLYFLATNYYWILVEGLYLHSLIFMAFFSEKKYLWGFTVFGWGLPAVFVAVWVSVRATLANTGCWDLSSGNKKWIIQVPILASIVLNFILFINIVRVLATKLRETNAGRCDTRQQYRKLLKSTLVLMPLFGVHYIVFMATPYTEVSGTLWQVQMHYEMLFNSFQGFFVAIIYCFCNGEVQAEIKKSWSRWTLALDFKRKARSGSSSYSYGPMVAHAAVANVGPRVGLGLPLSPRLLPTATTNGHPQLPGHAKPGTPALETLETTPPAMAAPKDDGFLNGSCSGLDEEASGPERPPALLQEEWETVM [chain 2 S475A T477A S478A T480A] | 1.1 fold change
chain 2 DADDVMTKEEQIFLLHRAQAQCEKRLKEVLQRPASIMESDKGWTSASTSGKPRKDKASGKLYPESEEDKEAPTGSRYRGRPCLPEWDHILCWPLGAPGEVVAVPCPDYIYDFNHKGHAYRRCDRNGSWELVPGHNRTWANYSECVKFLTNETREREVFDRLGMIYTVGYSVSLASLTVAVLILAYFRRLHCTRNYIHMHLFLSFMLRAVSIFVKDAVLYSGATLDEAERLTEEELRAIAQAPPPPATAAAGYAGCRVAVTFFLYFLATNYYWILVEGLYLHSLIFMAFFSEKKYLWGFTVFGWGLPAVFVAVWVSVRATLANTGCWDLSSGNKKWIIQVPILASIVLNFILFINIVRVLATKLRETNAGRCDTRQQYRKLLKSTLVLMPLFGVHYIVFMATPYTEVSGTLWQVQMHYEMLFNSFQGFFVAIIYCFCNGEVQAEIKKSWSRWTLALDFKRKARAGAAAYAYGPMVSHTSVTNVGPRVGLGLPLSPRLLPTATTNGHPQLPGHAKPGTPALETLETTPPAMAAPKDDGFLNGSCSGLDEEASGPERPPALLQEEWETVM [chain 2 S463A S465A S466A S467A S469A] | 2.1 fold change

Reference: PMC9512828
